Measurements published in patent US20050080013A1 (Pfizer, published 2005).
Non-standard residues stand in square brackets, D forms with d. No end group written: not given here. Orn = NCCC[C@H](N)C(=O)O

T1: lecithin:cholesterol acyltransferase (LCAT), purified from human plasma (human, UniProt P04180 25-440)
T1 sequence (looked up): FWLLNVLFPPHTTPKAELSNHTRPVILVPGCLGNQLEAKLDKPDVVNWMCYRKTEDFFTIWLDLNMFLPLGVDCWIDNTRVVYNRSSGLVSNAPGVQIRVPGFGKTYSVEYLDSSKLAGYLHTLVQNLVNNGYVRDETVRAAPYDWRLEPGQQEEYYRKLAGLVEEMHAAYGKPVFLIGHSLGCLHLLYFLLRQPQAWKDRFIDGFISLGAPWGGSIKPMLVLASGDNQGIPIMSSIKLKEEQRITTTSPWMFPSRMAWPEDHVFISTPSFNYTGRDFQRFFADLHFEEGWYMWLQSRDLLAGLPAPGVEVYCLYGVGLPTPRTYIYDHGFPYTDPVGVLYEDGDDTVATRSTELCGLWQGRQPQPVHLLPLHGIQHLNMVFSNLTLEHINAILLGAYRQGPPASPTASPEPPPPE

B1: peptide 212 (peptide)
peptide: Ac-PVLDLF[Orn]ELLEEL[Orn]Q[Orn]LK-NH2
SMILES: CC(=O)N1CCC[C@H]1C(=O)N[C@H](C(=O)N[C@@H](CC(C)C)C(=O)N[C@@H](CC(=O)O)C(=O)N[C@@H](CC(C)C)C(=O)N[C@@H](Cc1ccccc1)C(=O)N[C@@H](CCCN)C(=O)N[C@@H](CCC(=O)O)C(=O)N[C@@H](CC(C)C)C(=O)N[C@@H](CC(C)C)C(=O)N[C@@H](CCC(=O)O)C(=O)N[C@@H](CCC(=O)O)C(=O)N[C@@H](CC(C)C)C(=O)N[C@@H](CCCN)C(=O)N[C@@H](CCC(N)=O)C(=O)N[C@@H](CCCN)C(=O)N[C@@H](CC(C)C)C(=O)N[C@@H](CCCCN)C(N)=O)C(C)C
B2: peptide 214 (peptide)
peptide: Ac-[dP]VLDLFRELLEELKQKLK-NH2
SMILES: CC(=O)N1CCC[C@@H]1C(=O)N[C@H](C(=O)N[C@@H](CC(C)C)C(=O)N[C@@H](CC(=O)O)C(=O)N[C@@H](CC(C)C)C(=O)N[C@@H](Cc1ccccc1)C(=O)N[C@@H](CCCNC(=N)N)C(=O)N[C@@H](CCC(=O)O)C(=O)N[C@@H](CC(C)C)C(=O)N[C@@H](CC(C)C)C(=O)N[C@@H](CCC(=O)O)C(=O)N[C@@H](CCC(=O)O)C(=O)N[C@@H](CC(C)C)C(=O)N[C@@H](CCCCN)C(=O)N[C@@H](CCC(N)=O)C(=O)N[C@@H](CCCCN)C(=O)N[C@@H](CC(C)C)C(=O)N[C@@H](CCCCN)C(N)=O)C(C)C
B3: peptide 211 (peptide)
peptide: Ac-PVLDLFRELLEEL[Orn]Q[Orn]L[Orn]-NH2
SMILES: CC(=O)N1CCC[C@H]1C(=O)N[C@H](C(=O)N[C@@H](CC(C)C)C(=O)N[C@@H](CC(=O)O)C(=O)N[C@@H](CC(C)C)C(=O)N[C@@H](Cc1ccccc1)C(=O)N[C@@H](CCCNC(=N)N)C(=O)N[C@@H](CCC(=O)O)C(=O)N[C@@H](CC(C)C)C(=O)N[C@@H](CC(C)C)C(=O)N[C@@H](CCC(=O)O)C(=O)N[C@@H](CCC(=O)O)C(=O)N[C@@H](CC(C)C)C(=O)N[C@@H](CCCN)C(=O)N[C@@H](CCC(N)=O)C(=O)N[C@@H](CCCN)C(=O)N[C@@H](CC(C)C)C(=O)N[C@@H](CCCN)C(N)=O)C(C)C

Each binder was assayed against T1, lecithin:cholesterol acyltransferase … (assay: cell-based or functional assay).

Going from GVLELFLNLLERLLDALQKKLK [peptide 177] to [dP][dV][dL][dE][dL][dF][dE][dN][dL][dL][dE][dR][dL][dL][dD][dA][dL][dQ][dK][dK][dL][dK] [peptide 174], the “ACTIVITY (%) LCAT” value rises from 10% to 13%.

Compared with PVLELFENLLERWLDALQKKLK [peptide 181], Ac-PVLDLFRELWEELKQKLK-NH2 [peptide 199] is higher in “ACTIVITY (%) LCAT” value: 8% for the first, 76% for the second.

Going from [dP]VLDLFRELLNEGLEALKQKLK [peptide 19] to Ac-PALELFKDLLEELRQRLK-NH2 [peptide 208], the “ACTIVITY (%) LCAT” value falls from 58% to 48%.

Compared with PVLELFDNLLERLLDALQKKLK [peptide 179], Ac-PVLDLFKELLEELKQKLK-NH2 [peptide 192] is higher in “ACTIVITY (%) LCAT” value: 8% for the first, 100% for the second.

Going from Ac-PALELFKDLLEEFRQRLK-NH2 [peptide 213] to PVLELFDNLLEKLLEALQKKLR [peptide 178], the “ACTIVITY (%) LCAT” value falls from 42% to 9%.

Compared with PVLELFENLLEKLLEALQKKLK [peptide 182], Ac-PVLDLFRELLEEWKQKLK-NH2 [peptide 215] is higher in “ACTIVITY (%) LCAT” value: 7% for the first, 38% for the second.

Compared with PVLELFENLLERLLDALQ[Orn][Orn]L[Orn] [peptide 185], Ac-AVLDLFRELLEELKQKLK-NH2 [peptide 203] is higher in “ACTIVITY (%) LCAT” value: 3% for the first, 66% for the second.

Compared with B1, PVLELFDNLLDKLLDALQKKLR [peptide 180] is lower in “ACTIVITY (%) LCAT” value: 43% for the first, 8% for the second.

Compared with Ac-PLLELLKELLEELKQKLK-NH2 [peptide 206], Ac-PVLELLKELLEELKQKLK-NH2 [peptide 207] is lower in “ACTIVITY (%) LCAT” value: 57% for the first, 50% for the second.

First: Ac-PVLDLFRELLEELKQKLK-NH2 [peptide 193]
Second: PVLDLFRELLEELKQKLK [peptide 210]
The “ACTIVITY (%) LCAT” value of the first is higher: 96% for the first, 46% for the second.

Compared with PVLDLLRELLNELLEALKQKLK [peptide 16], Ac-PALELFKDLLEELRQKLR-NH2 [peptide 202] is higher in “ACTIVITY (%) LCAT” value: 59% for the first, 70% for the second.

Compared with Ac-NVLDLFRELLEELKQKLK-NH2 [peptide 200], Ac-PVLDLFRELLEELKNKLK-NH2 [peptide 196] is higher in “ACTIVITY (%) LCAT” value: 75% for the first, 81% for the second.

Going from PVLELFENLLERLLELLNKKLK [peptide 175] to PVLELFKELLEELKQKLK [peptide 216], the “ACTIVITY (%) LCAT” value rises from 13% to 35%.

First: Ac-PVLDFFRELLEELKQKLK-NH2 [peptide 204]
Second: GVLDLFRELLNELLEALKQKLK [peptide 18]
The “ACTIVITY (%) LCAT” value of the first is higher: 63% for the first, 58% for the second.

Compared with PVLDLFRELLELLKQKLK [peptide 217], PLLELFENLLEKLLDALQKKLK [peptide 183] is lower in “ACTIVITY (%) LCAT” value: 30% for the first, 6% for the second.

First: PVLDLFDNLLDRLLDLLNKKLK [peptide 173]
Second: PVLELWENLLERLLDALQKKLK [peptide 176]
The “ACTIVITY (%) LCAT” value of the first is higher: 15% for the first, 11% for the second.

Compared with B2, Ac-PLLDLFKELLEELKQKLK-NH2 [peptide 201] is higher in “ACTIVITY (%) LCAT” value: 39% for the first, 74% for the second.

Compared with Ac-GVLDLFRELLEELKQKLK-NH2 [peptide 198], Ac-PVLDLFREWLEELKQKLK-NH2 [peptide 205] is lower in “ACTIVITY (%) LCAT” value: 80% for the first, 60% for the second.

First: Ac-PVLELFRELLEELKQKLK-NH2 [peptide 194]
Second: PVLELFLNLLERLLDAWQKKLK [peptide 184]
The “ACTIVITY (%) LCAT” value of the first is higher: 88% for the first, 4% for the second.

Going from Ac-PVLDLLRELLEELKQKLK-NH2 [peptide 191] to Ac-PVLDLFRELLNELLQKLK-NH2 [peptide 218], the “ACTIVITY (%) LCAT” value falls from 100% to 29%.

Going from PVLDLFRELLNELWQKLK [peptide 219] to PVLELFKELLQELLEALKQKLK [peptide 17], the “ACTIVITY (%) LCAT” value rises from 24% to 59%.

First: Ac-PVLELFKELLEELKQKLK-NH2 [peptide 195]
Second: Ac-PLLDLFRELLEELKQKLK-NH2 [peptide 197]
The “ACTIVITY (%) LCAT” value of the first is higher: 87% for the first, 81% for the second.

First: PVLDLFRELLNELLQKLK [peptide 209]
Second: B3
The “ACTIVITY (%) LCAT” value of the first is higher: 47% for the first, 45% for the second.
